Results reported in patent publication US20160130303A1 (RAMOT AT TEL AVIV UNIVERSITY, published 2016).
Where no end group is shown, it is not given here. [ ]: non-standard residue; d: D form. The star is where a group is joined. Myristoyl = CCCCCCCCCCCCCC(=O)*; pS = N[C@@H](COP(=O)(O)O)C(=O)O

B1: PQ9A (L803 variant where Gln9 was replaced by alanine) (peptide)
peptide: KEAPPAPPA[pS]P
B2: L806-mts, Myr-GKEAPPAPPPS(p)P (peptide)
peptide: Myristoyl-GKEAPPAPPP[pS]P

Target: wild-type (WT) GSK-3β (human, UniProt P49841 1-420, phosphorylated at Tyr 216 (shown by western blot))
Assay: cell-based or functional assay

Sequence of wild-type (WT) GSK-3β (P49841 other isoform, or with tags, fused parts or gaps limits assumed): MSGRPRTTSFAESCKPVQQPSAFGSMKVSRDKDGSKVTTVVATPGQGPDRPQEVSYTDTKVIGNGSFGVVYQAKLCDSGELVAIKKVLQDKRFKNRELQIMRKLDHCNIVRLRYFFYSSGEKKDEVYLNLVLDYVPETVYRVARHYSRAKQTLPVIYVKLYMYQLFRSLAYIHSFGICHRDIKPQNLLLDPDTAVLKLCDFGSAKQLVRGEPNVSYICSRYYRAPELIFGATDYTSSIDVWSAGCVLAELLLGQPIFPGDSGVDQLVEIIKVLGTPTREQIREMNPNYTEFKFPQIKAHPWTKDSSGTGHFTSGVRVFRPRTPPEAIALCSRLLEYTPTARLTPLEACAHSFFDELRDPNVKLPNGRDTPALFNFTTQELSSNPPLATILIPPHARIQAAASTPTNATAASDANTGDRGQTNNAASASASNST

Binder	inhibition of GSK-3β in in vitro kinase assays (substrate phosphorylation, no inhibitor = 100%)	IC50, in vitro kinase assays with GSK-3β at increasing inhibitor concentrations [nM]
B1	~2 fold relative to L803	
B2		~1000
